In publication PMC2172889 one finds IC50 2 (two-site competition, site 2) and fluorescence, fold over control, data, which are given here for 1 substance.

The target of test [1] is epidermal growth factor receptor (human (endogenous in MDA-MB-231)) (UniProt P00533). Description: radioligand binding.
Test [2] has the same target. Description: flow cytometry on cells.

For the substance “recombinant domain III (DIII) of the laminin-5 γ2-chain (domain or fragment)”, the IC50 2 (two-site competition, site 2) in test [1] worked out at 1180 nM. The fluorescence, fold over control, at saturation in test [2] amounted to 12 fold.
